In patent US20240261333A1 (published 2024):
Values belong to the binder of their own block, whether it stands above or below them.

Columns and labels:
TPM3 = target: T1, TPM3 (human, UniProt P06753-2 2-248); assay: co-IP with anti-FLAG, N-FLAG B3GNT2, mass spectrometry
T1 construct: also called NP_705935.1
Method: (§1) Cells were plated in 10-cm cell culture dishes and grown to 60-80% confluency. For each condition, two biological replicates were harvested for co-IP. Cells were washed with PBS and 4 mL of lysis buffer (20 mM HEPES, 1% Triton X-100, 150 mM NaCl, 1 mM EDTA, and 10% glycerol) containing protease inhibitor cocktail was added. Cells were scraped and lysate was incubated at 4° C. under rotary agitation for 1 h. Lysate was centrifuged at 14,000×g for 10 min at 4° C. Supernatant was transferred to a new tube and an aliquot was taken as the input. […] For Western blots, 10 μg/mL Chicken Anti-FLAG (Aves labs ET-DY100) and IgY control (R&D Systems AB-101-C) antibodies were biotinylated (Thermo Fisher Scientific 90407) and added to the respective conditions. Lysates with antibodies were incubated at 4° C. under rotary agitation overnight. For each mL of lysate, 50 μL of Pierce Protein A/G Magnetic Beads (Mass spectrometry; Thermo Fisher Scientific 88803) or Pierce Streptavidin Magnetic Beads (Western blot; Thermo Fisher Scientific 88817) was washed twice with lysis buffer. Lysates with antibodies were added to the beads and incubated at 4° C. under rotary agitation for 4 h. Beads were washed with lysis buffer 3 times and resuspended in lysis buffer for storage.
(§2) Magnetic beads were resuspended in 100 mM Tris pH 7.8, reduced, alkylated and digested with trypsin at 37° ° C. overnight. This solution was subjected to solid phase extraction to concentrate the peptides and remove unwanted reagents followed by injection onto a Shimadzu HPLC with fraction collector. Eight fractions were collected and after concentration were injected on a Waters NanoAcquity HPLC equipped with a self-packed Aeris 3 μm C18 analytical column 0.075 mm by 20 cm, (Phenomenex). Peptides were eluted using standard reverse-phase gradients. The effluent from the column was analyzed using a Thermo Orbitrap Elite mass spectrometer (nanospray configuration) operated in a data dependent manner for 54 minutes. The resulting fragmentation spectra were correlated against the known database using Proteome Discover 1.4 (Thermo Fisher Scientific).

S100A7 = target: T2, S100A7 (human, UniProt P31151 2-101); assay: as above
T2 construct: also called NP_002954.2
T2 sequence (looked up): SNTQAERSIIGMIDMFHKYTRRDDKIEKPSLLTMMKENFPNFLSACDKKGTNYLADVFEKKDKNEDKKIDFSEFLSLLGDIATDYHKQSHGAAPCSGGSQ
Method: as §1, §2

RPS24 = target: T3, RPS24 (human, UniProt P62847-4 1-289, limits assumed); assay: as above
T3 construct: also called NP_001135757.1
T3 sequence (P62847 other isoform, or with tags, fused parts or gaps limits assumed): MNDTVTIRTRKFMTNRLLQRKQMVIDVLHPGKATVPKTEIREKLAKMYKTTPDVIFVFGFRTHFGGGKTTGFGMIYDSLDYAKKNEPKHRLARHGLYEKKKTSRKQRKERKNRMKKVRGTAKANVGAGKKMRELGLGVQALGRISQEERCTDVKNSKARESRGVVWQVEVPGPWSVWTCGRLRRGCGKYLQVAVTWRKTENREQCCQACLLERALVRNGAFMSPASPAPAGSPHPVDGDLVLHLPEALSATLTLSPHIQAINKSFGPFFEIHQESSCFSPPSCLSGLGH
Method: as §1, §2

RRP12 = target: T4, RRP12 (human, UniProt Q5JTH9-3 1-1236, limits assumed); assay: co-IP with anti-FLAG, mass spectrometry; lysate of cells with N-FLAG B3GNT2
T4 construct: also called NP_001138586.1 (+4)
T4 sequence (looked up): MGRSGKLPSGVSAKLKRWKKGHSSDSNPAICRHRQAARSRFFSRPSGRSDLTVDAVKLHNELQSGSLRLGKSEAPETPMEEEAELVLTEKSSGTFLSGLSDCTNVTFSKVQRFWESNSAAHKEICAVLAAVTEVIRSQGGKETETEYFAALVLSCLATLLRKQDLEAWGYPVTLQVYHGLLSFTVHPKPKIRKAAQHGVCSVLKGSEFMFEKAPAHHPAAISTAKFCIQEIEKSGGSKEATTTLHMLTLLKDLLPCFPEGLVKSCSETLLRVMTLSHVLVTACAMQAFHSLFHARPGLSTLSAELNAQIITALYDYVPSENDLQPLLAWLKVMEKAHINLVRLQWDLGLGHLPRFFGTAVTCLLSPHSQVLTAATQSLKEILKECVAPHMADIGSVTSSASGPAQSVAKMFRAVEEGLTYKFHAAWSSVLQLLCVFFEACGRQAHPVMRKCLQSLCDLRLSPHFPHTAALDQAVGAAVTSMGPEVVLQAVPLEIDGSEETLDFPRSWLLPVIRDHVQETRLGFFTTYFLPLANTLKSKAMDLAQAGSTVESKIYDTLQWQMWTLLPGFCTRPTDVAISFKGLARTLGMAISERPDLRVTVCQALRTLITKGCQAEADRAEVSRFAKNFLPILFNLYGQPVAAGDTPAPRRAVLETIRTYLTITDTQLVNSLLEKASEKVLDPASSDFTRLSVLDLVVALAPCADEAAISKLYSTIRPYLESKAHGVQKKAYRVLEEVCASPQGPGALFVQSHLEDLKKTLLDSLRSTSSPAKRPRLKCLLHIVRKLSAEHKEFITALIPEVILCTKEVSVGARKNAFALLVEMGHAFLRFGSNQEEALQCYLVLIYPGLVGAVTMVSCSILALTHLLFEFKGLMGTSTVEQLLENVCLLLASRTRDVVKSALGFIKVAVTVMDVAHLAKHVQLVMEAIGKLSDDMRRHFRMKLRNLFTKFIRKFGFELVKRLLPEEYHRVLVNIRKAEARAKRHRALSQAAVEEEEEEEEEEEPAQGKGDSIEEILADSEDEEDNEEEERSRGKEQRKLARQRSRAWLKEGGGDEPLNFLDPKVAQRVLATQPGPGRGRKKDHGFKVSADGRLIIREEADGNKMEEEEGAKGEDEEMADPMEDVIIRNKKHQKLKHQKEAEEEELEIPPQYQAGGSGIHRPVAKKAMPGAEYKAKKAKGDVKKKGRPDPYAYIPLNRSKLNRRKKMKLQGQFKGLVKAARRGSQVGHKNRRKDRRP

GAPDH = target: T5, GAPDH (human, UniProt P04406 2-335, limits assumed); assay: as above
T5 construct: also called NP_001344872.1 (+1)
T5 sequence (P04406 2-335 limits assumed): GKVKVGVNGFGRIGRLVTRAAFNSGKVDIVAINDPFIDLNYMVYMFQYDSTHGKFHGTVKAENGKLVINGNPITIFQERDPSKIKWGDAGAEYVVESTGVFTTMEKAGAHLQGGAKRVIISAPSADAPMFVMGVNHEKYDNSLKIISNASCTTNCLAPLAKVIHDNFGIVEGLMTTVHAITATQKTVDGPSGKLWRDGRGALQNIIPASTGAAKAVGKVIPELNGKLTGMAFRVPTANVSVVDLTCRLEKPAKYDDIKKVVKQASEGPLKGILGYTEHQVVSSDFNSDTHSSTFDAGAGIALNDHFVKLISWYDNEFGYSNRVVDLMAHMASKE

T1 sequence (P06753 other isoform, or with tags, fused parts or gaps limits assumed): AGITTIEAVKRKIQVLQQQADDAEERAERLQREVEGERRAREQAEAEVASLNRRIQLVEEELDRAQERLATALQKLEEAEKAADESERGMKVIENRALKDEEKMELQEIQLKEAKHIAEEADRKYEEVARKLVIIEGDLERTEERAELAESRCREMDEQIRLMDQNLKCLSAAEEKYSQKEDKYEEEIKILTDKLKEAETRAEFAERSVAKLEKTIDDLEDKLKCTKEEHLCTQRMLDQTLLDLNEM

co-IP mass spectrometry count (TPM3): 6
co-IP mass spectrometry count (S100A7): 3
B1: N-terminal FLAG tagged B3GNT2 (enzyme, human, UniProt Q9NY97 1-397, looked up)
chain: MSVGRRRIKLLGILMMANVFIYFIMEVSKSSSQEKNGKGEVIIPKEKFWKISTPPEAYWNREQEKLNRQYNPILSMLTNQTGEAGRLSNISHLNYCEPDLRVTSVVTGFNNLPDRFKDFLLYLRCRNYSLLIDQPDKCAKKPFLLLAIKSLTPHFARRQAIRESWGQESNAGNQTVVRVFLLGQTPPEDNHPDLSDMLKFESEKHQDILMWNYRDTFFNLSLKEVLFLRWVSTSCPDTEFVFKGDDDVFVNTHHILNYLNSLSKTKAKDLFIGDVIHNAGPHRDKKLKYYIPEVVYSGLYPPYAGGGGFLYSGHLALRLYHITDQVHLYPIDDVYTGMCLQKLGLVPEKHKGFRTFDIEEKNKNNICSYVDLMLVHSRKPQEMIDIWSQLQSAHLKC
notes: FLAG-tagged ORF overexpressed in cells; pulled down from lysate with mouse anti-FLAG; also called N-FLAG B3GNT2; N-term FLAG; not shown: N-terminal FLAG tag

co-IP/MS count, N-term FLAG (RPS24): 0
B2: N-terminal FLAG tagged B3GNT2 (enzyme, human, UniProt Q9NY97 1-397, looked up)
chain: B1 chain
notes: FLAG-tagged ORF overexpressed in A375 cells; pulled down from the lysate with mouse anti-FLAG; also called N-FLAG B3GNT2; N-term FLAG; not shown: N-terminal FLAG tag

co-IP mass spectrometry count (RRP12): 0
co-IP mass spectrometry count (GAPDH): 18
B3: N-terminal FLAG tagged B3GNT2 (enzyme, human, UniProt Q9NY97 1-397, looked up)
chain: B1 chain
notes: Bait of the co-IP; pulled down with mouse anti-FLAG (Millipore Sigma F3165) from cell lysate; also called N-FLAG B3GNT2; N-term FLAG; not shown: N-terminal FLAG tag
